In a protein production outcome set (Wang et al. 2014):

Assay: label from the status in PepcDB records

| Sequence | protein production |
| --- | --- |
| IPLKSIEVPFEGELLPGYAIISEDKAQDTLIVVGGGDTSREDLFYMLGYSGWEHDYNVLMVDLPGQGKNPNQGLHFEVDARAAISAILDWYQAPTEKIAIAGFSGGGYFTAQAVEKDKRIKAWIASTPIYDVAEVFRISFSTALKAPKTILKWGSKLVTSVNKVAEVNLNKYAWQFGQVDFITSVNEVLEQAQIVDYNKIDVPSLFLVGAGEDSELMRQSQVLYDNFKQRGIDVTLRKFSSESGADAHCQVNNFRLMHYQVFEWLNHIFKKKD | failed |
| MNPSDRKDAVNPFGKLTFLVVDDFENFRLSMRQMLRSCGADKIELVAHATPAIQYCTYNHVDVVLCDYNLGEGKNGQHVLEELRHKKLLKRSSLFLMVTAETSKEMVMGAREYQPDGYLTKPINRAMLEQRLGSLIKQRNALLPITREIDRENYPEAISLCLQTLPKQPRYKTWLMKTLGELYFMVGDLAHAQKVYDDVLNQRELSWARLGRCKVLLANRNFDQAVDGLKALIEKHPDYMEAYDLLAEGLQKQGRSAQAQQVLEKAAEHSPNALLRQKHLAELAGANQDIDTASQAWRQTVSLGTYSIHDNAEHYLSLAQSLSDLSEGDLDEEGAARSSEALSVLTKMEKRFDNDETIGLKSRIVQCRLHAGQGRHREAEKILTAVSSELESLEELPADMGLDFAKTLFRMGREDQAKRILGDLASRFDNDPDTLQKIENLLDEPVGFRQKLEARSMNRDGIKAFEAGDLDAAVEAFNKALAIVPDHAALNLNLVQVLMKQYDQNPEPALLAACQQRLDHLNKLPEQHRQHRRYLALTRKLKGLTA | failed |
| MDELFAKAPIKKVYFKLALPVVLGMITTMIYNLADTMFVAKTSDTNLVAGITIGAPLFTFLIAVSDIFGLGGSSLISRLFGERNYQLSKRVSSFCMIGGFVTGLILTAILLIFENPILHLLGAKAATYQDAADFYRIISIGAAPIVFSIIPQNLIRTEGLATQAMIATMTGTILAIILDPIFLFVFKMGAIGVGIANITGYLVTDIILIYYVLCKTEYIKLKLKYTKISGKTIKDIVAIGIPGSITNFAQSFGMALLNSSLALYGANKVAAMGITQKIYSIVILVIVGFAFGSQPLIGYNYGAKNWKRLKKILNFDILVQVVYAVVSGGLLILFARPVTALFMNQPDIVNAGSYMLIATIITTPIVGIILVYTTVFQSVGNAWAAFIMAIARQGVVYFIALETLKNIFGYHGIVWAQAVSDVITCIIGYFIYEKSLDLKDKIKN | failed |
| MTGRDLMLITGISPIILRFLFGGTAVVASRLVARSFGGRLGGVFAAFPAVYLAAVAGLSMEYEGSELLSVSEQLSRGALVGMSADICCALAASYLILKYGWKTGLSLSLLFWAVLAPVIYFTWF | failed |
| MADLPSISLITATYNAAQHLPGLIESVRQQSDRAFEWIVIDGASEDGTLDLIRGAQDVITDYVSEPDFGIFHALNKGIQRATGDYYLVVGADDRLDPLAIANYKQAAASSQADLISAYIYSEKKAIIKPTGGAIWHHGVQAFITTQSVGTLIKRNLHEHYGYYSHYYPTAADALFILKVQQGGGKITTAEFIAGQYNTKGFSYRYKANLLCELFLIQKEFFPKSIQLLLLIYRLIKNYRYLLEHHHHHH | failed |
| MKTESTGKALMVLGCPESPVQIPLAIYTSHKLKKKGFRVTVTANPAALRLVQVADPEGIYTDEMVDLESCINELAEGDYEFLAGFVPNDAAAAYLVTFAGILNTETLAIIFDRDADVLEELVNEIMETLDAEIIAARAHHNPAPLRVRIDRFMEEKP | not failed |
| MPFEIGTMPIMSIDPKLLEVLACPQDKGPLKYLEAEQVLVNERLEIAYRIDDGIPVMLVDESIAWPPAEKLEHHHHHH | failed |
| MKVPEAAISRLITYLRILEELEAQGVHRTSSEQLGELAQVTAFQVRKDLSYFGSYGTRGVGYTVPVLKRELRHILGLNRKWGLCIVGMGRLGSALADYPGFGESFELRGFFDVDPEKVGRPVRGGVIEHVDLLPQRVPGRIEIALLTVPREAAQKAADLLVAAGIKGILNFAPVVLEVPKEVAVENVDFLAGLTRLSFAILNPKWREEMMG | not failed |
| MRAASTSKPVGAHEETGHLGGAHSTYVSSAQVTNAEHENELQVVDLPRAPPSLSKAVTYFYITGFGRFALMEDNPTERVVLRLREILQDPGRVQMLHERLVRIVDLRILEVSAAAAHETLAEMKTQCLQMRQKPNISSDGRNRTVCFLHLGVDASADGFLVERSAVNEALFRFPDERGWQPTTPIPIVRGAQLGARYELDGEALASLCERTESLLNEWGRTNWTVRVNDDAGRFLCNYLFYLSAFEGLAENGHHLWQTFFLHCPMETVAPLDVQVDVVLAFMVAVAQSNAQQGPLEGILAR | not failed |
| EDSLATVKVVLIPVGQEIVIPFKVDTILKYLKDHFSHLLGIPHSVLQIRYSGKILKNNETLVQHGVKPQEIVQVEIFSTNPDLYPVRR | failed |
